Experiment [1] concerns the target T1, Recombinant human sclerostin (human, UniProt Q9BQB4 24-213).
T1 construct: Whole entry as named; Secreted recombinant protein purified from FreeStyle293-F conditioned medium; also called human-SOST; Human SOST
T1 sequence: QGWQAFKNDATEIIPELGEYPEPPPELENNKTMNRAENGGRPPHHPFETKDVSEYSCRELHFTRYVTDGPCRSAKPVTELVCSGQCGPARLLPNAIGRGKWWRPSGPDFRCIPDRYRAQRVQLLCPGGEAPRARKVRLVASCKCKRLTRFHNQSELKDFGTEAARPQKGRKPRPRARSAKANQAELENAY
Nature of the experiment: SPR; captured antibody (SG1/SK1 constant regions), recombinant human SOST as analyte; response normalised by the capture level of the antibody [panel mabBL]. In general terms: SPR reads the build-up and loss of mass on a sensor chip optically.

The target of experiment [2] is T1, Recombinant human sclerostin. Put plainly: SPR (Biacore T200), 37 C, dissociation at pH 5.8 of complex formed at pH 7.4.
Description: (§1) The affinity of anti-sclerostin variants binding to human, cynomolgus monkey (cyno), rat, or mouse sclerostin at pH 7.4 and pH 5.8 were determined at 37 degrees C. using Biacore T200 instrument (GE Healthcare). Anti-human Fc (GE Healthcare) was immobilized onto all flow cells of a CM4 sensor chip using amine coupling kit (GE Healthcare). All antibodies and analytes were prepared in ACES pH7.4 or pH 5.8 buffer containing 20 mM ACES, 150 mM NaCl, 1.2 mM CaCl₂, 0.05% Tween 20, 0.005% NaN₃. Each antibody was captured onto the sensor surface by anti-human Fc. […] Sensor surface was regenerated each cycle with 3M MgCl₂.
(§2) The pH dependent interaction assessment was determined by a modified Biacore assay. Briefly, an additional dissociation phase at pH5.8 was integrated into the Biacore assay immediately after dissociation phase at pH7.4. This is to assess the pH-dependent dissociation between antibody and antigen from the complexes formed at pH7.4. The dissociation rate at pH5.8 buffer was determined by processing and fitting data using Scrubber 2.0 (BioLogic Software) curve fitting software.
Experiment [3] deals with T2, Recombinant cynomolgus monkey sclerostin (cynomolgus monkey, UniProt Q9BG78 24-213 (Chlorocebus aethiops entry)).
T2 construct: Whole entry as named; expressed and purified as the human counterpart; also called cyno-SOST; cyno SOST
T2 chain: T1 sequence with P70Q, E129A, T161P, S178G
Described as above.
Description: as §1, §2

For experiment [4], the target named is T2, Recombinant cynomolgus monkey sclerostin. Nature of the experiment: SPR (Biacore T200), 37 C, antibody captured by anti-human Fc, sclerostin as analyte, pH 5.8.
Description: as §1
For experiment [5], the target named is T1, Recombinant human sclerostin. Put plainly: SPR (Biacore T200), 37 C, antibody captured by anti-human Fc, sclerostin as analyte, pH 7.4.
Description: as §1
For experiment [6], the target named is T3, Recombinant mouse sclerostin (mouse, UniProt Q99P68 24-211).
T3 construct: Whole entry as named; also called mouse-SOST
T3 sequence: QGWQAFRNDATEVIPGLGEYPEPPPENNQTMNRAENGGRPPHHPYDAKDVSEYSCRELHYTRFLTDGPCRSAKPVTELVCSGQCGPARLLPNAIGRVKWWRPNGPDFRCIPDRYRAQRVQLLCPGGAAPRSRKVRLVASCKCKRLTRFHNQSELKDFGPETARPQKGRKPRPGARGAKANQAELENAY
Nature of the experiment: SPR (Biacore T200), 37 C, antibody captured by anti-human Fc, sclerostin as analyte, pH 5.8; pH 5.8.
Description: as §1

Experiment [7] concerns the target T3, Recombinant mouse sclerostin. Put plainly: SPR (Biacore T200), 37 C, antibody captured by anti-human Fc, sclerostin as analyte, pH 7.4; pH 7.4.
Description: as §1
Experiment [8] addresses T2, Recombinant cynomolgus monkey sclerostin. Nature of the experiment: SPR (Biacore), dissociation at pH 7.4.
Description: as §1
Experiment [9] has as its target T1, Recombinant human sclerostin. Nature of the experiment: SPR (Biacore T200), 37 C, antibody captured by anti-human Fc, sclerostin as analyte, pH 5.8.
Description: as §1
Experiment [10] addresses T2, Recombinant cynomolgus monkey sclerostin. Nature of the experiment: SPR (Biacore T200), 37 C, antibody captured by anti-human Fc, sclerostin as analyte, pH 7.4.
Description: as §1
Experiment [11] concerns the target T4, Recombinant rat sclerostin (rat, UniProt Q99P67 29-213).
T4 construct: Whole entry as named; also called rat-SOST
T4 sequence: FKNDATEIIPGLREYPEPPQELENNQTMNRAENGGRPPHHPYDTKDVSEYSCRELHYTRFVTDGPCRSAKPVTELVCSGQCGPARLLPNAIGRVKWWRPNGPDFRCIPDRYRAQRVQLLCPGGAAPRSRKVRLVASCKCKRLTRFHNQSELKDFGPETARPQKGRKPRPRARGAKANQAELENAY
Nature of the experiment: SPR (Biacore T200), 37 C, dissociation at pH 5.8 of complex formed at pH 7.4.
Description: as §1, §2

In experiment [12] the target is T3, Recombinant mouse sclerostin. Described as above.
Description: as §1, §2
Experiment [13] concerns the target T4, Recombinant rat sclerostin. Nature of the experiment: SPR (Biacore T200), 37 C, antibody captured by anti-human Fc, sclerostin as analyte, pH 5.8.
Description: as §1
Experiment [14] concerns the target T3, Recombinant mouse sclerostin. Nature of the experiment: cell-based or functional assay.
The next experiment deals with T5, Mouse Fc gamma RIIB (mouse, UniProt P08101 30-210, limits assumed).
T5 sequence (looked up): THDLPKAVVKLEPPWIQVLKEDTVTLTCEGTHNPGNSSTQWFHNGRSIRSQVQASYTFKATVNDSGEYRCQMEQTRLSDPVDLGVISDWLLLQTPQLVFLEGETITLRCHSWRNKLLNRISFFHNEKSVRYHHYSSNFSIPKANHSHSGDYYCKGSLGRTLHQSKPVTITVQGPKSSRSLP
Nature of the experiment: SPR (Biacore T200), pH 7.4, 25 degrees C; mouse Fc gamma RIIB captured by anti-Histidine antibody; antibody injected at 100 nM alone or as 1:1 immune complex with human sclerostin.

For experiment [15], the target named is T1, Recombinant human sclerostin. Put plainly: SPR; captured antibody, recombinant human SOST as analyte; response normalised by the capture level of the antibody [panel abL083].
For experiment [16] the target is unchanged. Nature of the experiment: SPR (Biacore), dissociation at pH 7.4.
Description: as §1
Experiment [17] has the same target. Put plainly: SPR; captured antibody (SG1/SK1 constant regions), recombinant human SOST as analyte; response normalised by the capture level of the antibody [panel mabAL].
Experiment [18] deals with T3, Recombinant mouse sclerostin. Nature of the experiment: SPR (Biacore T200), 37 C, antibody captured by anti-human Fc, sclerostin as analyte, pH 5.8.
Description: as §1

As usually defined, the koff is the first-order rate constant of dissociation. For orientation: Kd means a measure of binding affinity in units of concentration.

Positions count from the first letter of the chain named.

Description for Mouse Fc gamma RIIB: The binding of anti-sclerostin antibodies/sclerostin immune complex towards mouse Fc gamma RIIB at pH 7.4 were determined at 25 degrees C. using Biacore T200 instrument (GE Healthcare). All antibodies and mouse Fc gamma RIIB were prepared in ACES pH 7.4 containing 20 mM ACES, 250 mM NaCl, 1.2 mM CaCl₂, 0.05% Tween 20, 1 mg/ml BSA, 1 mg/ml carboxymethyl dextran (CMD), 0.005% NaN₃. Anti-Histidine antibody (GE Healthcare) was immobilized onto all flow cells of a CM4 sensor chip using amine coupling kit (GE Healthcare). Mouse Fc gamma RIIB was captured on flow cell 2 by anti-Histidine antibody with flow cell 1 as reference flow cell. Mouse Fc gamma RIIB capture levels were aimed at 400 resonance unit (RU). All antibodies were injected at 100 nM over all flow cells. Immune complexes were prepared by mixing 1:1 molar ratio of antibody and human sclerostin and incubated at room temperature for one hour. Sensor surface was regenerated each cycle with 10 mM Glycine-HCl, pH1.5.

B1: mabA heavy chain combined with the mabB light chain (mabBL) (antibody, human IgG1, kappa, V domains shown)
VH: EVQLVQSGAEVKKPGASVKVSCKASGYTFTDYNMHWVRQAPGQGLEWMGEINPNSGGAGYNQKFKGRVTMTTDTSTSTAYMELRSLRSDDTAVYYCARLGYDDIYDDWYFDVWGQGTTVTVSS
VL: DIQMTQSPSSLSASVGDRVTITCKASQDVHTAVAWYQQKPGKAPKLLIYWASTRWTGVPSRFSGSGSGTDFTLTISSLQPEDFATYYCQQYSDYPWTFGGGTKVEIKR
notes: also called mabBL with the mabA heavy chain; Light chain B with the mabA heavy chain
For B1, the binding result in experiment [1] is “no binding”.

B2: mabA (antibody, V domains shown)
VH: B1 VH
VL: DIQMTQSPSSLSASVGDRVTITCRASQDISNYLNWYQQKPGKAPKLLIYYTSRLLSGVPSRFSGSGSGTDFTLTISSLQPEDFATYYCQQGDTLPYTFGGGTKVEIK
B2: the koff came out at 0.00631 s⁻¹ in experiment [2] and 0.00697 s⁻¹ in experiment [3]. The Kd in experiment [4] was 1.4 nM; in experiment [5], 0.08 nM; in experiment [6], below 0.01 nM; in [7], below 0.01 nM.

B3: amH852/abL152 (antibody, V domains shown)
VH: B1 VH with Q43K, N52M, N54H, G57R, A58Y, Y60L, N61K, G100E, D102S, D103E
VL: B2 VL with Q27E, D28G, S30H, N31D, Y32A, N34A, Y50W, T51A, R53T, L55E
notes: Homodimeric antibody
Turning to B3, the koff in experiment [8] stood at 0.0019 s⁻¹.

B4: mabA_NpH2 (antibody, V domains shown)
VH: B1 VH
VL: B2 VL with Y50H
Take B4: the koff in [2] turned out to be 0.0023 s⁻¹; in [3], 0.0018 s⁻¹. The Kd stood at 0.69 nM in experiment [9] and 0.28 nM in experiment [10].

B5: mabA_pH1 (antibody, V domains shown)
VH: B1 VH with G57H, G100H
VL: B2 VL with Q27H
As to B5, the koff in [11] worked out at 0.0059 s⁻¹; in experiment [12], 0.0107 s⁻¹. The Kd in experiment [13] is 4.2 nM.

B6: mabB//mabA-BS01 (bispecific antibody, human IgG1, kappa)
heavy 1: QVQLVQSGAEVKKPGASVKVSCKVSGFPIKDTFQHWVRQAPGKGLEWMGWSDPEIGDTEYASKFQGRVTMTEDTSTDTAYMELSSLRSEDTAVYYCATGDTTYKFDFWGQGTTVTVSSASTKGPSVFPLAPSSRSTSESTAALGCLVKDYFPEPVTVSWNSGALTSGVHTFPAVLQSSGLYSLSSVVTVPSSSLGTKTYTCNVDHKPSNTKVDKRVEPKSCDKTHTCPPCPAPELLGGPSVFLFPPKPKDTLMISRTPEVTCVVVDVSQEDPEVQFNWYVDGVEVHNAKTKPREEQFNSTYRVVSVLTVLHQDWLNGKEYKCKVSNKGLPSSIEKTISKAKGQPREPQVYTLPPSREEMTKNQVSLTCLVKGFYPSDIAVEWESNGQPENNYKTTPPYLDSDGSFFLYSKLTVDKSRWQQGNVFSCSVMHEALHNHYTQESLSLSP
light 1: DIQMTQSPSSLSASVGDRVTITCKASQDVHTAVAWYQQKPGKAPKLLIYWASTRWTGVPSRFSGSGSGTDFTLTISSLQPEDFATYYCQQYSDYPWTFGGGTKVEIKRTVAAPSVFIFPPSDEQLKSGTASVVCLLNNFYPREAKVQWKVDNALQSGNSQESVTEQDSKDSTYSLSSTLTLSKADYEKHKVYACEVTHQGLSSPVTKSFNRGEC
heavy 2: EVQLVQSGAEVKKPGASVKVSCKASGYTFTDYNMHWVRQAPGQGLEWMGEINPNSGGAGYNQKFKGRVTMTTDTSTSTAYMELRSLRSDDTAVYYCARLGYDDIYDDWYFDVWGQGTTVTVSSASTKGPSVFPLAPSSRSTSESTAALGCLVKDYFPEPVTVSWNSGALTSGVHTFPAVLQSSGLYSLSSVVTVPSSSLGTKTYTCNVDHKPSNTKVDKRVEPKSCDKTHTCPPCPAPELLGGPSVFLFPPKPKDTLMISRTPEVTCVVVDVSQEDPEVQFNWYVDGVEVHNAKTKPREEQFNSTYRVVSVLTVLHQDWLNGKEYKCKVSNKGLPSSIEKTISKAKGQPREPQVYTLPPSRKEMTKNQVSLTCLVKGFYPSDIAVEWESNGQPENNYKTTPPYLDSDGSFFLYSKLTVDKSRWQQGNVFSCSVMHEALHNHYTQKSLSLSP
light 2: not shown
Regarding B6, the “IC50 (read off the curve); Wnt1-induced TCF/LEF luciferase reporter in HEK293T cells, % Inhibition of mouse SOST” value in [14] was around 7 µg/mL. Moreover, in the experiment with Mouse Fc gamma RIIB, the binding result was “binds”.

B7: mabB heavy chain combined with light chain variant abL083 (antibody, human IgG1, kappa, V domains shown)
VH: QVQLVQSGAEVKKPGASVKVSCKVSGFPIKDTFQHWVRQAPGKGLEWMGWSDPEIGDTEYASKFQGRVTMTEDTSTDTAYMELSSLRSEDTAVYYCATGDTTYKFDFWGQGTTVTVSS
VL: DIQMTQSPSSLSASVGDRVTITCRASQDIHTYLAWYQQKPGKAPKLLIYWASTRLSGVPSRFSGSGSGTDFTLTISSLQPEDFATYYCQQGDTLPYTFGGGTKVEIKR
notes: also called abL083 with the mabB heavy chain
Take B7: the binding result in [15] was “binds”.

B8: bsH638/abL152 (antibody, V domains shown)
VH: B7 VH with F27Y, P28T, I29L, K30T, D31H, Q34M, T58H, F107Y, T113L
VL: B2 VL with Q27E, D28G, S30H, N31D, Y32A, N34A, Y50W, T51A, R53T, L55E
notes: Homodimeric antibody
Consider B8, for which the koff in experiment [16] was determined as 0.0093 s⁻¹.

B9: mabB heavy chain combined with the mabA light chain (mabAL) (antibody, human IgG1, kappa, V domains shown)
VH: B7 VH
VL: B7 VL with H30S, T31N, A34N, W50Y, A51T, T53R, R54L
notes: also called mabAL with the mabB heavy chain; Light chain A with the mabB heavy chain
Regarding B9, the binding result in experiment [17] was “no binding”.

B10: mabB (antibody, V domains shown)
VH: B7 VH
VL: DIQMTQSPSSLSASVGDRVTITCKASQDVHTAVAWYQQKPGKAPKLLIYWASTRWTGVPSRFSGSGSGTDFTLTISSLQPEDFATYYCQQYSDYPWTFGGGTKVEIK
As to B10, the koff in [12] turned out to be 0.00265 s⁻¹. Also, the Kd in [18] is 0.26 nM.

The record behind these values is patent publication US20190352387A1 (Chugai, published 2019).
